{"source": "paper PMC3755756", "about": "(Developmental cell, 2013)", "binders": {"B1": {"name": "V domain of HD-PTP (domain or fragment, human, UniProt Q9H3S7 401-714, looked up)", "chain": "MQLDPETVDNLDAYSHIPPQLMEKCAALSVRPDTVRNLVQSMQVLSGVFTDVEASLKDIRDLLEEDELLEQKFQEAVGQAGAISITSKAELAEVRREWAKYMEVHEKASFTNSELHRAMNLHVGNLRLLSGPLDQVRAALPTPALSPEDKAVLQNLKRILAKVQEMRDQRVSLEQQLRELIQKDDITASLVTTDHSEMKKLFEEQLKKYDQLKVYLEQNLAAQDRVLCALTEANVQYAAVRRVLSDLDQKWNSTLQTLVASYEAYEDLMKKSQEGRDFYADLESKVAALLERTQSTCQAREAARQQLLDRELKK"}, "B2": {"name": "V domain of human Alix (domain or fragment)", "chain": "FEKMVPVSVQQSLAAYNQRKADLVNRSIAQMREATTLANGVLASLNLPAAIEDVSGDTVPQSILTKSRSVIEQGGIQTVDQLIKELPELLQRNREILDESLRLLDEEEATDNDLRAKFKERWQRTPSNELYKPLRAEGTNFRTVLDKAVQADGQVKECYQSHRDTIVLLCKPEPELNAAIPSANPAKTMQGSEVVNVLKSLLSNLDEVKKEREGLENDLKSVNFDMTSKFLTALAQDGVINEEALSVTELDRVYGGLTTKVQESLKKQEGLLKNIQVSHQEFSKMKQSNNEANLREEVLKNLATAYDNFVELVANLKEGTKFYNELTEILVRFQNKCSDIVFARKTER"}}, "molecular_target": "ubiquitin (15N-Ub) (UniProt P0CG48 1-76)", "assay": "NMR titration"}
{"binder": "B1", "values": [{"measurement": "Kd", "value": "~50", "unit": "µM"}]}
{"binder": "B2", "values": [{"measurement": "Kd", "value": "~50", "unit": "µM"}]}
